Source: a protein production outcome set (Wang et al. 2014)

Assay: label from the status in PepcDB records

Q: For “MEPVLTTKDLKHNYVDGSAELLRDPELVDPPFQVSRCAGNNRDLQTGQRSSGCVVTEIVYLSDSPYSSLNLVLRYPTTPAYPSRHFFSGLGHQMRMLSKLRFTLRSPLGLRRQPAPPPPLLVRVSLSSEPGVFIKMDLKDPASLLDLAMQCLLKNEPIIIQSLEEIPRELLIPLFCAAFLGGHKKTLTAIVKVWPFFCLHVGKLRSHETHSALLKAMIDGLQVLPAPNSASRGSKLKILDLRQDANCRTTCFPIRTKSPFCFHSCSYTQTSSRKRKGKHSTVNLGSEVQLSRYPTELLVDLSLDGTLRTSTFLSLLLSKVEQSSGALHLCCRDLQVDKLSDYNNTLKLLNLLCIDHLAVDQASLNDINTLLSQMVHLDSLSLSKITLTSLNAKIFKSFLTQLERMDNLQELNLSFFCLTNRLHKLLRVLPHDLDYLNLPFCELSYRDFRFLSQCPQAAHLKLLNLSNNPISWEDCEPLQTLMENVSGTLQHLEINHCLITDSTIFSLLPALSHCSHLRVLSFASNPITMSMLMRVLENLLPLMELKYVIYPIPVHCYERWYFQGTLDRQKLADVQVQLKAMLQAAQRGDMNWITFSE”, which protein production is on record?
A: The protein production was “failed”.

Q: With “MEPWKQCAQWLIHCKVLPTNHRVTWDSAQVFDLAQTLRDGVLLCQLLNNLRAHSINLKEINLRPQMSQFLCLKNIRTFLTACCETFGMRKSELFEAFDLFDVRDFGKVIETLSRLSRTPIALATGIRPFPTEESINDEDIYKGLPDLIDETLVEDEEDL” as the sequence, how does the protein production read?
A: Its protein production is “failed”.

Q: Which protein production does the source give for “MEQDHVKVKKRVAFVLIDGLGDVTIPKLGYKTPLQAANIPNLDAIASAGINGLMDPVEVGLGCGSDTAHLSLMGYDPRVYYRGRGAFESMGAGLAMSPGDIAFKSNFATLDEKSGVVVSRRADRHFEEEGPILCAALDGLKLQSFPEYEVRVRYATEHRCGVVVKGPRLSGNISGTDPLKDNRLLLEAKPLDESEEATHTAKVVNELSREISRILVSHPVNAERAAQGKNIANLVLLRGCGIRIEVPPFHEKHGLWPCMVAPTKIIAGLGMSLGIDILEAPGATGDYRTLLTSKATAIANALSAPLNPCPNVFVPGEDGHKPGRSDGYDFGFLHIKAIDDAGHDKATMFKVRGLEAVDKAIRQLAKLLWQAESSTHYQYFLCVTGDHSTPVEYGDHSFEPVPFTMCRLRDFVSAVGGESAVLETSLDPFPLPTVVESGEDVTKQEEESGRREAPLAIGGDLVAELNEVAAARGCLGRFHGGEMMGVITNFLNLEV” here?
A: The protein production was “failed”.

Q: With “MEQLIFKQTYKKIEPFILLLNGLLLAAAISIVHIVGMHAYHLFEAASSNVPLITLAFGISAVLSSVAIWLTSRFTLPIFRLILSSVIMGIGISASYYVSMLGWNIDIYKKDYTSFLILFSVLIAMSGSGLAFLLAYKLKESERHRISLKLAFAVMMTLSIMGMHYTALISTNITDKFVSQYQAEHDLLLFTIILVTCLVLVASFIVAVLEQRLNQRNLELRKANKELANLSIQDNLTKLPNRLYLVDYAEVLLSDHRYKDQKIAFLYIDLDRFKSVNDAFGHHIGDQLLIQMANRLHWQLNEKCKLLRIGGDEFLLIAENTDTEEAMQLAEKVLHLIQDSYQISGKEINISASLGIALFPEHGQNVQDLLMNADAAMLMSKEQGRNTYTVFSYSTHQQETRSQSKLINDLYKAVEEKQFVLYYQPKFNTNLEICGVEALIRWNHPSLGMLTPHMFIGGAEKTGLIIPMGYWALEQACQQIQEWERSNTQFYPIAVNLSALQFENKKLFSTLEGLLKKYQIQPHHLIIEITESTAMRHIDLSIRACERLRDMGIRVAIDDFGTGHSSFLYLKDLPVDELKIDRGFIVDLKPGSKEEVILESIIHLAKKLGLTVTAEGVETQQQVEILTRLGCQQFQGYLLGMPVNVGQLIQSQGAHFV” as the sequence, how does the protein production read?
A: Its protein production is “failed”.

Q: With “MEQLVSMGFSSDLAAEALTATGGDSIQKATDWILSHRSSPQSTATLQPKLDRFLRLHPKALAPAMGDDSSKRPNPKTQIHVAADDSNKRHKLSSSSHRQHQPLSERMRPRTLDDVVGQDHLLSPSSLLRSAVESNRLPSIVFWGPPGTGKTSIAKSLINSSKDPSLYRFVSLSAVTSGVKDVRDAVESAKRLNLEGRKRTVLFMDEVHRFNKSQQDTFLPVIEDGSILFIGATTENPSFHLITPLLSRCRVLTLNPLKPNHVETLLRRAVDDSERGLPNSVEVDDSVIEFLANNCDGDARVALNALEISATMATTRAGTDAVVSIDDAKEALQCKHLAYDKAGEQHYNLISALHKSMRGGDANAAIYWLARMLEGGEEPLYIARRLIRFASEDIGLADPSALTQAVACYQASHFLGMPECNVILAQCTAYLALAPKSIAVYRAIGAAQKVVKDSVGQNEGVPLHLRNAPTKLMKELGYGKEYIYPPSDPSSAAGQTYLPPSLLHHKFLEWPEGASGDFQDQEHRL” as the sequence, how does the protein production read?
A: Its protein production is “failed”.

Q: For “MEQNSYVIIDETGIHARPATMLVQTASKFDSDIQLEYNGKKVNLKSIMGVMSLGVGKDAEITIYADGSDESDAIQAISDVLSKEGLTK”, which protein production is on record?
A: Its protein production is “not failed”.

Q: Which protein production does the source give for “MEQSVPARGTSPARRLATAARHCLVLAVASILAACTTITAVTPNEPEQRLVWPGPPLQPRIEWVREVYNQKGLGVSPGFWGRIARFVLGEKEERFIRPHGILADEQIFALVDSGAGRVHLIDLKRGTYRLLPEEGKTPMVSPIGIARDSRGAIYVTDSGTGLIHRFSDDGDSFVALDLRPLHRPTGIAFNPVTGLLYVAETGAHRIVAFDSAGKETLRIGGSGMEPGAFNFPTDLAVMADGRLLVTDSLNSRIQIFTADGKPAGSFGEAGDTPGRFTRPKGVAVDSEGHIYVCDSQQDMVQIFDETGRLLLAFGDKGSLPGQFWMPSGIHIANDMIYVSDTYNQRVQVFRYLKEEPWGQDPHTPD” here?
A: The protein production was “failed”.

Q: Which protein production does the source give for “MERHVPEPTHTLEGWHVLHDFRLLDFARWFSAPLEAREDAWEELKGLVREWRELEEAGQGSYGIYQVVGHKADLLFLNLRPGLDPLLEAEARLSRSAFARYLGRSYSFYSVVELGSQEKPLDPESPYVKPRLTPRVPKSGYVCFYPMNKRRQGQDNWYMLPAKERASLMKAHGETGRKYQGKVMQVISGAQGLDDWEWGVDLFSEDPVQFKKIVYEMRFDEVSARYGEFGPFFVGKYLDEEALRAFLGL” here?
A: The protein production was “not failed”.

Q: For “MERILLVLDDTGRGEIAFQKLKKLAEDGLRGEVYILYIREMEVPPFVPEEKELAAYHRLMTQSMKKLEGFKNQLEKAGLKVSDVSVVFGKYADRLLLVEKQIKPDLIVVGFKGGLLKRVIGGFFGKDPCEVLLKKSKASLLICR”, which protein production is on record?
A: Its protein production is “not failed”.

Q: Which protein production does the source give for “MERLKIQVLVDNNTYIDRYFVGEPAVSYYIEIDGNRILFDSGYSDVFISNAEKLNIDLGNLTHVVFSHGHNDHTRGIQFLENRYDLSTVELVSHPNCFIPRKHGEKSIGAPFSAEEIKNIFMYNPKDKPFNLSKNCVFLGEIPSINDFEKRAKIGKCKIGDLWEDDYVLDDSAIVCKTDKGIFIVTGCSHSGICNIVEYAKKVCGDDRVIGILGGFHLFELNNRLDSTIQYLDKEEIRMLYPCHCVSFKVKAKMNEILNINEVGVGLTISILEHHHHHH” here?
A: Its protein production is “not failed”.

Q: With “MERLNSKLFVENCYIMKENERLRKKAELLNQENQQLLFQLKQKLSKTKNSNNGSNNDNKSSSASGQS” as the sequence, how does the protein production read?
A: Its protein production is “failed”.

Q: For “MERLSPVFATSKSSNMEVEHWMTSLKEVEKVLDSVEPKLTSSGTKWRVVAQHIKDICSDLNQIFNKEDPRYEVVQAGASAAHDFDVRYLDIHKVRTPHEPLEMRHSKGRKHGREIARLLEKIQKYRQEIEEIKKEYKETDKYRERYDHYKVKLDNLEKKNKDQERIERNQQKFKDAEAAYSSVCADLIQKMETVWKKHVSIFAEAASAVWSTQLQYAKALEAAANPIVPYLQQEEQEEEEEEEAASGTQGRVAEKAYHTNEEKVENSFQKNSAIPPSFRTASEQLTEQSKNINNAKNTSETSPAEDIEA”, which protein production is on record?
A: Its protein production is “not failed”.

Q: With “MERPVPVRVEPRQLALDLPHAESLSREDFLEGSANTAALSLIESWPDWPNRIMMLVGPEGSGKSHLAAIWAELAGARSTAAQALNAAAVPGALATGAVVVEDLVPGSFDERALFHLMNMAREDEAYVLFTGRVEPSALSIELRDLKSRLRTVPVVSLLPPDDALFRALIVKFCADRQMCIDAALVGYLANRIDRSFVAARQVVEKLDTTALRLGRPVTRALASEVLRADLEHHHHHH” as the sequence, how does the protein production read?
A: The protein production was “failed”.

Q: Which protein production does the source give for “MERQQQQQQQLRNLRDFLLVYNRMTELCFQRCVPSLHHRALDAEEEACLHSCAGKLIHSNHRLMAAYVQLMPALVQRRIADYEAASAVPSVAAEQPGVSPSGS” here?
A: The protein production was “not failed”.
